One block for each binder: values may come before it. Square brackets hold non-standard residues; d marks the D form. * marks the point of attachment. Phe(4-I) = N[C@@H](Cc1ccc(I)cc1)C(=O)O; dPhe(4-I) = N[C@H](Cc1ccc(I)cc1)C(=O)O; Bta = N[C@@H](Cc1csc2ccccc12)C(=O)O; Tic = O=C(O)[C@@H]1Cc2ccccc2CN1; dTic = O=C(O)[C@H]1Cc2ccccc2CN1; For = O=C*
Assays:
[1] = biological target: T1, mouse melanocortin-3 receptor (mouse, UniProt P33033 1-323); assay: 125I-NDP-MSH competitive displacement, HEK293 cells stably expressing mMC3R
T1 construct: whole, on cells; also called mMC3R; MC3R
Description: (§1) A typical experiment utilized a 12-well format.

[2] = biological target: T1, mouse melanocortin-3 receptor; assay: 125I-NDP-MSH competitive displacement, HEK293 cells stably expressing mMC3R; negative = more potent than control
Description: as §1

[3] = biological target: T2, mouse melanocortin-4 receptor (mouse, UniProt P56450 1-332); assay: 125I-NDP-MSH competitive displacement, HEK293 cells stably expressing mMC4R; negative = more potent than control
T2 construct: whole, on cells; also called mMC4R; MC4R
Description: as §1

[4] = biological target: T1, mouse melanocortin-3 receptor; assay: cell-based or functional assay
[5] = biological target: T3, mouse melanocortin-5 receptor (mouse, UniProt P41149 1-325); assay: cell-based or functional assay
[6] = biological target: T3, mouse melanocortin-5 receptor; assay: cell-based or functional assay; remark: listed apart in the source
[7] = biological target: mouse melanocortin-1 receptor (mouse, UniProt Q01727 1-315); assay: cell-based or functional assay
[8] = biological target: T1, mouse melanocortin-3 receptor; assay: cell-based or functional assay; remark: listed apart in the source
[9] = biological target: T2, mouse melanocortin-4 receptor; assay: cell-based or functional assay
[10] = biological target: T2, mouse melanocortin-4 receptor; assay: cell-based or functional assay; remark: listed apart in the source

T2 sequence (P56450 whole entry): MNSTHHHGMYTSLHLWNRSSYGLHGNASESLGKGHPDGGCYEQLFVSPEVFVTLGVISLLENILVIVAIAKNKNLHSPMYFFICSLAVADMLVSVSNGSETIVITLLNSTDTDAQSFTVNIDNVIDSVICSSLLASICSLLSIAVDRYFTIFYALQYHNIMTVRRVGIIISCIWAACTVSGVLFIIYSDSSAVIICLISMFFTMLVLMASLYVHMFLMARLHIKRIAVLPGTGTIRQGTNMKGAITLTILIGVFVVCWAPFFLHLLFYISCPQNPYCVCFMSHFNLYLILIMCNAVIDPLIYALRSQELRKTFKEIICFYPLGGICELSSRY
T1 sequence (P33033 whole entry): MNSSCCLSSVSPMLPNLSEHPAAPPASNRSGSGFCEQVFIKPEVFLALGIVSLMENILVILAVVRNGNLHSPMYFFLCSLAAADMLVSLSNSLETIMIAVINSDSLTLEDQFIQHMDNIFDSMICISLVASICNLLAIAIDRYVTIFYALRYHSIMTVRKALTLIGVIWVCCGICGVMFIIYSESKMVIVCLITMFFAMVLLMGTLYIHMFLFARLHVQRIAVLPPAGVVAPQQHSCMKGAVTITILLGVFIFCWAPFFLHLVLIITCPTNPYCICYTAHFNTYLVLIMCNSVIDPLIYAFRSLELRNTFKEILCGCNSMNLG
T3 sequence (P41149 whole entry): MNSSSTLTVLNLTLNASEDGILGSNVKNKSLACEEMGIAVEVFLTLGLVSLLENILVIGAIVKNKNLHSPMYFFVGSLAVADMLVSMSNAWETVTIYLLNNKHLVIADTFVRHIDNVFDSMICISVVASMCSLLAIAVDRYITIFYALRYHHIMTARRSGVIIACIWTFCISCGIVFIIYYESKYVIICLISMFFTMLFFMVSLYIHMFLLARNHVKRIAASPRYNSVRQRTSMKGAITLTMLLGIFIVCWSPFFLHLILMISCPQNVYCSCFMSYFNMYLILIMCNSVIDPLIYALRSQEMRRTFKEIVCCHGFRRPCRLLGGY
mouse melanocortin-1 receptor, sequence (Q01727 whole entry): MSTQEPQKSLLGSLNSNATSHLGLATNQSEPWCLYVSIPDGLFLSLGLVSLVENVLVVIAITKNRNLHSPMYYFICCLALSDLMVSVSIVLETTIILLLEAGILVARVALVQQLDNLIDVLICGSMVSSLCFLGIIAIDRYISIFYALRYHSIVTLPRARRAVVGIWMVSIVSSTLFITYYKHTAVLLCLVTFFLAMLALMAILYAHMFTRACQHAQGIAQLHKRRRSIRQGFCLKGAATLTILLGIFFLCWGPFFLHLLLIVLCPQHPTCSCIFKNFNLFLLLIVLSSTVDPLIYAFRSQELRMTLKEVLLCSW

IC50 [1]: 5.35 µM
Fold Diff. (IC50 against SKY4-48-1) [2]: -9 fold
Fold Diff. (IC50 against SKY4-48-1) [3]: 7 fold
Binder: Ac-FR[dPhe(4-I)][Bta]-NH2 [SKY4-48-15, Ac-Phe-Arg-(pI)DPhe-3Bal-NH2]

fold decreased agonist potency against α-MSH [4]: 45000 fold
Binder: Ac-SYSMEHRFWGKPV-NH2 [SKY2-125-5, (Arg7, Phe8) α-MSH, Ac-Ser-Tyr-Ser-Met-Glu-His-Arg-Phe-Trp-Gly-Lys-Pro-Val-NH2]

Agonist, % of NDP-MSH maximal response [5]: 29 % @ 100 µM
B1: SKY5-121, Ac-DTrp-DArg-Phe-DHis-NH2 (peptide)
peptide: Ac-[dW][dR]F[dH]-NH2
SMILES: CC(=O)N[C@H](Cc1c[nH]c2ccccc12)C(=O)N[C@H](CCCNC(=N)N)C(=O)N[C@@H](Cc1ccccc1)C(=O)N[C@H](Cc1c[nH]cn1)C(N)=O

fold increase in agonist potency against SKY5-146-7 [6]: 40 fold
fold increase in agonist potency against SKY5-146-7 [7]: 380 fold
Binder: Ac-HR[dPhe(4-I)][Tic]-NH2 [SKY6-24-2, Ac-His-Arg-(pI)DPhe-Tic-NH2]

pA2 (antagonist) [8]: 6.8 pA2
Agonist, % of NDP-MSH maximal response [9]: 71 % @ 100 µM
pA2 (antagonist) [9]: 5.4 pA2
Antagonist Ki [10]: > 3.1 µM
B2: SKY5-148, For-DTic-(pI)Phe-DArg-DHis-NH2 (peptide)
peptide: For-[dTic][Phe(4-I)][dR][dH]-NH2
SMILES: N=C(N)NCCC[C@@H](NC(=O)[C@H](Cc1ccc(I)cc1)NC(=O)[C@H]1Cc2ccccc2CN1C=O)C(=O)N[C@H](Cc1c[nH]cn1)C(N)=O
